Measurements from publication PMC9482650, “Quantitative fragmentomics allow affinity mapping of interactomes” (Nature Communications, 2022).

T1: TJP3_3, O95049
T1 sequence (O95049 375-456, limits assumed, looked up): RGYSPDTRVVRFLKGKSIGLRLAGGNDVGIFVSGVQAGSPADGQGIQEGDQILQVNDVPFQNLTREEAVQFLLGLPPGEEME

T2: GRIP1_5, Q9Y3R0
T2 sequence (Q9Y3R0 568-668, limits assumed, looked up): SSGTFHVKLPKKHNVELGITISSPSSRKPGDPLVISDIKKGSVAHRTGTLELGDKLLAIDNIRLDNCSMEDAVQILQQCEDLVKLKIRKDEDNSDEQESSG

T3: CARD11, Q9BXL7
T3 sequence (Q9BXL7 662-765, limits assumed, looked up): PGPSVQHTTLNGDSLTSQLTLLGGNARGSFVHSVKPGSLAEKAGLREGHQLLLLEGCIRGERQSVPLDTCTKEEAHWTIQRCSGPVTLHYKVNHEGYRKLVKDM

T4: MPP7, Q5T2T1
T4 sequence (Q5T2T1 134-230, limits assumed, looked up): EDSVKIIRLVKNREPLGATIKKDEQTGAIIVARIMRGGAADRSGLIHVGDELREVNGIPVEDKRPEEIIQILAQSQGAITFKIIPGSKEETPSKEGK

T5: GRIP1_2, Q9Y3R0
T5 sequence (Q9Y3R0 145-248, limits assumed, looked up): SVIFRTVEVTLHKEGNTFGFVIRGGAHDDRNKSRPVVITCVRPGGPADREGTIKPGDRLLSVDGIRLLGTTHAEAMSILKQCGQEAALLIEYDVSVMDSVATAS

T6: DFNB31_3, Q9P202
T6 sequence (Q9P202 811-907, limits assumed, looked up): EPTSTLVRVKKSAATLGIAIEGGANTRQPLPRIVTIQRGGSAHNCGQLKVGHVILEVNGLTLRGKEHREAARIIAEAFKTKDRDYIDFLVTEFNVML

T7: SYNJ2BP, P57105
T7 sequence (P57105 8-110, limits assumed, looked up): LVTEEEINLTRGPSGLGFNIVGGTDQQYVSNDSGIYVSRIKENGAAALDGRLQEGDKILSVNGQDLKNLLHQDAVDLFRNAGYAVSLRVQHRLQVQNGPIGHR

T8: APBA1_2, Q02410
T8 sequence (Q02410 742-832, limits assumed, looked up): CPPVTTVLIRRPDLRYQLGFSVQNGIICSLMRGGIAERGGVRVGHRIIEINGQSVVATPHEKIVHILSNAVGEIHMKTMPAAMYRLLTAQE

T9: GRIP1_3, Q9Y3R0
T9 sequence (Q9Y3R0 247-346, limits assumed, looked up): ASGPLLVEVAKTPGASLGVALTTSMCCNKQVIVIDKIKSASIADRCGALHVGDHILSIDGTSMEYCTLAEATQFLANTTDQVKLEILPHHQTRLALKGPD

T10: LIN7C, Q9NUP9
T10 sequence (Q9NUP9 88-185, limits assumed, looked up): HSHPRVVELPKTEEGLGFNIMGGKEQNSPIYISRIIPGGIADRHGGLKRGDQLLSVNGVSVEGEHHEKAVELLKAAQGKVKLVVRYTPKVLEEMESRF


molecular target: TJP2_1, Q9UDY2; assay: holdup assay; parameters: key: below the threshold = too weak to quantify, mostly under pKd 3.1 to 4; details: plain residues with an end cap or a label only (N-terminal biotin on a linker: ado-ado)
Sequence (Q9UDY2 24-128): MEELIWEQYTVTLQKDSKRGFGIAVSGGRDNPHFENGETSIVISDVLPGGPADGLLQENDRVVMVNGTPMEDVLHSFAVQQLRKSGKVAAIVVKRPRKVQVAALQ

Binder	pKd
CLREWCDAFL [BANF1, O75531]	below the threshold
SARSRLSSNL [HCN2, Q9UL51]	below the threshold

molecular target: SCRIB_1, Q14160; assay: holdup assay; parameters: key: below the threshold = too weak to quantify, mostly under pKd 3.1 to 4; details: plain residues with an end cap or a label only (N-terminal biotin on a linker: ado-ado)
Sequence (Q14160 718-814): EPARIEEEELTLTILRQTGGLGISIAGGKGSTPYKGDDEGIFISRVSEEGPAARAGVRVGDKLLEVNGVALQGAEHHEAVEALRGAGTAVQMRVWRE

Binder	pKd
CLREWCDAFL [BANF1, O75531]	below the threshold
SARSRLSSNL [HCN2, Q9UL51]	4.36

molecular target: HTRA2, O43464; assay: holdup assay; parameters: key: below the threshold = too weak to quantify, mostly under pKd 3.1 to 4; details: plain residues with an end cap or a label only (N-terminal biotin on a linker: ado-ado)
Sequence (O43464 355-458): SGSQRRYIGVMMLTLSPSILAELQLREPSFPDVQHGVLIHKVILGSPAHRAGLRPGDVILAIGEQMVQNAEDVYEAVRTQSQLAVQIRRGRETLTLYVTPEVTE

Binder	pKd
CLREWCDAFL [BANF1, O75531]	3.91
SARSRLSSNL [HCN2, Q9UL51]	below the threshold

molecular target: LAP2, Q96RT1; assay: holdup assay; parameters: key: below the threshold = too weak to quantify, mostly under pKd 3.1 to 4; details: plain residues with an end cap or a label only (N-terminal biotin on a linker: ado-ado)
Sequence (Q96RT1 other isoform, or with tags, fused parts or gaps): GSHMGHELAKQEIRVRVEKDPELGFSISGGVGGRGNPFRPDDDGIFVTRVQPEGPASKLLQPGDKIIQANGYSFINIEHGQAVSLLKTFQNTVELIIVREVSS

Binder	pKd
CLREWCDAFL [BANF1, O75531]	3.69
SARSRLSSNL [HCN2, Q9UL51]	below the threshold

molecular target: T1, TJP3_3, O95049; assay: holdup assay; parameters: key: below the threshold = too weak to quantify, mostly under pKd 3.1 to 4; details: plain residues with an end cap or a label only (N-terminal biotin on a linker: ado-ado)

Binder	pKd
CLREWCDAFL [BANF1, O75531]	3.86
SARSRLSSNL [HCN2, Q9UL51]	below the threshold

molecular target: GRID2IP_1, A4D2P6; assay: holdup assay; parameters: key: below the threshold = too weak to quantify, mostly under pKd 3.1 to 4; details: plain residues with an end cap or a label only (N-terminal biotin on a linker: ado-ado)
Sequence (A4D2P6 1-87): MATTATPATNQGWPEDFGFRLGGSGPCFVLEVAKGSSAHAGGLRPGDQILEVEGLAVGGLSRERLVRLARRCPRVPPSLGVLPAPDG

Binder	pKd
CLREWCDAFL [BANF1, O75531]	below the threshold
SARSRLSSNL [HCN2, Q9UL51]	below the threshold

molecular target: T2, GRIP1_5, Q9Y3R0; assay: holdup assay; parameters: key: below the threshold = too weak to quantify, mostly under pKd 3.1 to 4; details: plain residues with an end cap or a label only (N-terminal biotin on a linker: ado-ado)

Binder	pKd
CLREWCDAFL [BANF1, O75531]	below the threshold
SARSRLSSNL [HCN2, Q9UL51]	below the threshold

molecular target: MAGI2_4, Q86UL8; assay: holdup assay; parameters: key: below the threshold = too weak to quantify, mostly under pKd 3.1 to 4; details: plain residues with an end cap or a label only (N-terminal biotin on a linker: ado-ado)
Sequence (Q86UL8 772-865): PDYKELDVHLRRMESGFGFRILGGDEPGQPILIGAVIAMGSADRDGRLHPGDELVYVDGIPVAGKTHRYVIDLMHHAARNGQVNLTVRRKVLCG

Binder	pKd
CLREWCDAFL [BANF1, O75531]	3.73
SARSRLSSNL [HCN2, Q9UL51]	below the threshold

molecular target: AHNAK1, Q09666; assay: holdup assay; parameters: key: below the threshold = too weak to quantify, mostly under pKd 3.1 to 4; details: plain residues with an end cap or a label only (N-terminal biotin on a linker: ado-ado)
Sequence (Q09666 4-100): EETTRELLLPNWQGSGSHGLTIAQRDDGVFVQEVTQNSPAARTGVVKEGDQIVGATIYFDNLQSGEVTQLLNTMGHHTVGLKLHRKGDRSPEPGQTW

Binder	pKd
CLREWCDAFL [BANF1, O75531]	below the threshold
SARSRLSSNL [HCN2, Q9UL51]	below the threshold

molecular target: T3, CARD11, Q9BXL7; assay: holdup assay; parameters: key: below the threshold = too weak to quantify, mostly under pKd 3.1 to 4; details: plain residues with an end cap or a label only (N-terminal biotin on a linker: ado-ado)

Binder	pKd
CLREWCDAFL [BANF1, O75531]	below the threshold
SARSRLSSNL [HCN2, Q9UL51]	below the threshold

molecular target: T4, MPP7, Q5T2T1; assay: holdup assay; parameters: key: below the threshold = too weak to quantify, mostly under pKd 3.1 to 4; details: plain residues with an end cap or a label only (N-terminal biotin on a linker: ado-ado)

Binder	pKd
CLREWCDAFL [BANF1, O75531]	below the threshold
SARSRLSSNL [HCN2, Q9UL51]	below the threshold

molecular target: T5, GRIP1_2, Q9Y3R0; assay: holdup assay; parameters: key: below the threshold = too weak to quantify, mostly under pKd 3.1 to 4; details: plain residues with an end cap or a label only (N-terminal biotin on a linker: ado-ado)

Binder	pKd
CLREWCDAFL [BANF1, O75531]	below the threshold
SARSRLSSNL [HCN2, Q9UL51]	below the threshold

molecular target: MAGI2_2, Q86UL8; assay: holdup assay; parameters: key: below the threshold = too weak to quantify, mostly under pKd 3.1 to 4; details: plain residues with an end cap or a label only (N-terminal biotin on a linker: ado-ado)
Sequence (Q86UL8 410-522): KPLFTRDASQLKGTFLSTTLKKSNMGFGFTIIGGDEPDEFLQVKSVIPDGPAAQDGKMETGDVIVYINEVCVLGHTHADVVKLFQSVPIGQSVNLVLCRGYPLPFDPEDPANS

Binder	pKd
CLREWCDAFL [BANF1, O75531]	below the threshold
SARSRLSSNL [HCN2, Q9UL51]	3.71

molecular target: SNX27, Q96L92; assay: holdup assay; parameters: key: below the threshold = too weak to quantify, mostly under pKd 3.1 to 4; details: plain residues with an end cap or a label only (N-terminal biotin on a linker: ado-ado)

Binder	pKd
CLREWCDAFL [BANF1, O75531]	4.58
SARSRLSSNL [HCN2, Q9UL51]	4.3

molecular target: DLG4_3, P78352; assay: holdup assay; parameters: key: below the threshold = too weak to quantify, mostly under pKd 3.1 to 4; details: plain residues with an end cap or a label only (N-terminal biotin on a linker: ado-ado)
Sequence (P78352 306-403): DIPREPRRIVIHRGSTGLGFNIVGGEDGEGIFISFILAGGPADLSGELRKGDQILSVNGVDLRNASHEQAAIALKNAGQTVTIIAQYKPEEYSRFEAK

Binder	pKd
CLREWCDAFL [BANF1, O75531]	below the threshold
SARSRLSSNL [HCN2, Q9UL51]	below the threshold

molecular target: T6, DFNB31_3, Q9P202; assay: holdup assay; parameters: key: below the threshold = too weak to quantify, mostly under pKd 3.1 to 4; details: plain residues with an end cap or a label only (N-terminal biotin on a linker: ado-ado)

Binder	pKd
CLREWCDAFL [BANF1, O75531]	below the threshold
SARSRLSSNL [HCN2, Q9UL51]	below the threshold

molecular target: T7, SYNJ2BP, P57105; assay: holdup assay; parameters: key: below the threshold = too weak to quantify, mostly under pKd 3.1 to 4; details: plain residues with an end cap or a label only (N-terminal biotin on a linker: ado-ado)

Binder	pKd
CLREWCDAFL [BANF1, O75531]	below the threshold
SARSRLSSNL [HCN2, Q9UL51]	3.76

molecular target: T8, APBA1_2, Q02410; assay: holdup assay; parameters: key: below the threshold = too weak to quantify, mostly under pKd 3.1 to 4; details: plain residues with an end cap or a label only (N-terminal biotin on a linker: ado-ado)

Binder	pKd
CLREWCDAFL [BANF1, O75531]	3.75
SARSRLSSNL [HCN2, Q9UL51]	below the threshold

molecular target: PDZRN4_1, Q6ZMN7; assay: holdup assay; parameters: key: below the threshold = too weak to quantify, mostly under pKd 3.1 to 4; details: plain residues with an end cap or a label only (N-terminal biotin on a linker: ado-ado)
Sequence (Q6ZMN7 213-318): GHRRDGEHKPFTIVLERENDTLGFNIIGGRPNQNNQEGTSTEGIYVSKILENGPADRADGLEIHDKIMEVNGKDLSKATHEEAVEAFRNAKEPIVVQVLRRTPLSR

Binder	pKd
CLREWCDAFL [BANF1, O75531]	below the threshold
SARSRLSSNL [HCN2, Q9UL51]	3.53

molecular target: FRMPD3, Q5JV73; assay: holdup assay; parameters: key: below the threshold = too weak to quantify, mostly under pKd 3.1 to 4; details: plain residues with an end cap or a label only (N-terminal biotin on a linker: ado-ado)
Sequence (Q5JV73 12-100): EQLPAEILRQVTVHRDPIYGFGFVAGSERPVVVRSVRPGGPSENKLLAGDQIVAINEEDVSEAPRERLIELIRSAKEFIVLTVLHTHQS

Binder	pKd
CLREWCDAFL [BANF1, O75531]	3.66
SARSRLSSNL [HCN2, Q9UL51]	below the threshold

molecular target: T9, GRIP1_3, Q9Y3R0; assay: holdup assay; parameters: key: below the threshold = too weak to quantify, mostly under pKd 3.1 to 4; details: plain residues with an end cap or a label only (N-terminal biotin on a linker: ado-ado)

Binder	pKd
CLREWCDAFL [BANF1, O75531]	below the threshold
SARSRLSSNL [HCN2, Q9UL51]	below the threshold

molecular target: T10, LIN7C, Q9NUP9; assay: holdup assay; parameters: key: below the threshold = too weak to quantify, mostly under pKd 3.1 to 4; details: plain residues with an end cap or a label only (N-terminal biotin on a linker: ado-ado)

Binder	pKd
CLREWCDAFL [BANF1, O75531]	3.66
SARSRLSSNL [HCN2, Q9UL51]	below the threshold

molecular target: GORASP2, Q9H8Y8; assay: holdup assay; parameters: key: below the threshold = too weak to quantify, mostly under pKd 3.1 to 4; details: plain residues with an end cap or a label only (N-terminal biotin on a linker: ado-ado)

Binder	pKd
CLREWCDAFL [BANF1, O75531]	below the threshold
SARSRLSSNL [HCN2, Q9UL51]	below the threshold

molecular target: DLG1_3, Q12959; assay: holdup assay; parameters: key: below the threshold = too weak to quantify, mostly under pKd 3.1 to 4; details: plain residues with an end cap or a label only (N-terminal biotin on a linker: ado-ado)
Sequence (Q12959 457-571): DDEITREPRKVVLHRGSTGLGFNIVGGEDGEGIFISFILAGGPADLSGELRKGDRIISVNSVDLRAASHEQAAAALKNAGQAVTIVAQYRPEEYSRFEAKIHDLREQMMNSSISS

Binder	pKd
CLREWCDAFL [BANF1, O75531]	below the threshold
SARSRLSSNL [HCN2, Q9UL51]	below the threshold

molecular target: GRIP2_3, Q9C0E4; assay: holdup assay; parameters: key: below the threshold = too weak to quantify, mostly under pKd 3.1 to 4; details: plain residues with an end cap or a label only (N-terminal biotin on a linker: ado-ado)
Sequence (Q9C0E4 238-339): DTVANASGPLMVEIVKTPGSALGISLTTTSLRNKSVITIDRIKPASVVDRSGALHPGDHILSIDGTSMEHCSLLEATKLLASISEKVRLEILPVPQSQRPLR

Binder	pKd
CLREWCDAFL [BANF1, O75531]	below the threshold
SARSRLSSNL [HCN2, Q9UL51]	below the threshold

molecular target: GRIP2_7, Q9C0E4; assay: holdup assay; parameters: key: below the threshold = too weak to quantify, mostly under pKd 3.1 to 4; details: plain residues with an end cap or a label only (N-terminal biotin on a linker: ado-ado)
Sequence (Q9C0E4 934-1023): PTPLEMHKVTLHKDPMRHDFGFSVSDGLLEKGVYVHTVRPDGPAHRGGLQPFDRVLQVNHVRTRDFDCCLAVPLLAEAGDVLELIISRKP

Binder	pKd
CLREWCDAFL [BANF1, O75531]	below the threshold
SARSRLSSNL [HCN2, Q9UL51]	below the threshold

molecular target: SCRIB_2, Q14160; assay: holdup assay; parameters: key: below the threshold = too weak to quantify, mostly under pKd 3.1 to 4; details: plain residues with an end cap or a label only (N-terminal biotin on a linker: ado-ado)
Sequence (Q14160 857-960): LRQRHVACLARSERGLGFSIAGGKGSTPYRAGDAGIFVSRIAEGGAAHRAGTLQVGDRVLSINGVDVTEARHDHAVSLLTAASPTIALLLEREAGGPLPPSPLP

Binder	pKd
CLREWCDAFL [BANF1, O75531]	below the threshold
SARSRLSSNL [HCN2, Q9UL51]	below the threshold
